Assay results as given in US20150057331A1.

Columns and labels:
CD4 (human) = CD4 (human) (UniProt P01730); experiment: cell-based or functional assay
CCR5 (human) = CCR5 (human) (UniProt P51681); experiment: cell-based or functional assay

Substance	ATP release from primary human macrophages (luminescence assay), peak fold change against vehicle (CD4 (human)) [fold]	ATP release from primary human macrophages (luminescence assay), peak fold change against vehicle (CCR5 (human)) [fold]
Monomeric gp120BaL (R5-tropic)	1.8	1.8
Monomeric gp120SF162 (R5-tropic)	1.8	1.8
